Consider two molecules from paper PMC7511963 (NPJ Vaccines, 2020).

Assay [1] has as its target HPV16 L1L2 pseudovirus (human papillomavirus type 16) (UniProt P03101).
Another assay has as its target T1, HPV16 L1L2 pseudovirus (Human papillomavirus type 16, L1 …).
T1 construct: also called HPV16 PsV; HPV16 PsVs; copies: 360 +
T1 chain: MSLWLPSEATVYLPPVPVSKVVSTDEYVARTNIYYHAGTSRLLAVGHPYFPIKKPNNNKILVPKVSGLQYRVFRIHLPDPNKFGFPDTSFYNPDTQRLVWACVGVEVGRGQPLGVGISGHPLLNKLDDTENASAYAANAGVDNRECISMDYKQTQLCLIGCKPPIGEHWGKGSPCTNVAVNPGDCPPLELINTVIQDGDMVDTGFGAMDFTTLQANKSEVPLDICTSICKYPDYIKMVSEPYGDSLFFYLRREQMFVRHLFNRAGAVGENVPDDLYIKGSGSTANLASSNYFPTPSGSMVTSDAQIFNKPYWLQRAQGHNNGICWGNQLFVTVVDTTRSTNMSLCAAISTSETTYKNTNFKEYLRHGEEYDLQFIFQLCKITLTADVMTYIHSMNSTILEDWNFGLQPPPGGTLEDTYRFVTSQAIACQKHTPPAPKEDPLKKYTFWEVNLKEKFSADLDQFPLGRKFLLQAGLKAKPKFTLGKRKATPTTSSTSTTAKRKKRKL
The experiment in a line: cryo-EM structure. The settings on record: both partners purified.

B1: rabbit monoclonal antibody H16.001 (antibody, V domains shown)
VH: QSVKESEGRLVTPGTPLTLTCTASGFTMSRYHMTWVRQAPGKGLEWIGIIYARNSDTYYANWAKGRFTISKTSTTVDLKITSPTIEDTATYFCARVDSDSSGAFDRLDLWGQGTLVTVSS
VL: DPMLTQTAASVEVAVGGTVTIKCQASQSIGGYLSWYQQKPGQRPKLLIYRASTLASGVPSRFKGSGSGTEYTLTFSGVECADAAAYYCQQGYTSSDINNAFGGGTEVVVK
In assay [1], B1 registered a PsV-based neutralization assay on 293FT cells: IC50, the antibody concentration required to block viral entry by 50% of 0.4 ng/mL.

B2: H16.001 Fab (Fab, V domains shown)
VH: QSVKESEGRLVTPGTPLTLTCTASGFTMSRYHMTWVRQAPGKGLEWIGIIYARNSDTYYANWAKGRFTISKTSTTVDLKITSPTIEDTATYFCARVDSDSSGAFDRLDLWGQGTLVTVSS
VL: DPMLTQTAASVEVAVGGTVTIKCQASQSIGGYLSWYQQKPGQRPKLLIYRASTLASGVPSRFKGSGSGTEYTLTFSGVECADAAAYYCQQGYTSSDINNAFGGGTEVVVK
notes: also called Fab H16.001; H16.001 Fabs
For orientation: stoichiometry N means the number of molecules, sites or subunits per partner or assembly. With B2, the “stoichiometry N” value with HPV16 L1L2 pseudovirus worked out at 360 Fabs per capsid.
